B1: mek4-AP soluble receptor fusion protein (mouse Mek4 receptor extracellular domain fused to secreted human placental alkaline phosphatase) (receptor)
chain: ELSPQPSNEVNLLDSKTIQGELGWISYPSHGWEEISGVDEHYTPIRTYQVCNVMDHSQNNWLRTNWVPRNSAQKIYVELKFTLRDCNSIPLVLGTCKETFNLYYMESDDHGVKFREHQFTKIDTIAADESFTQMDLGDRILKLNTEIREVGPVNKKGFYLAFQDVGACVALVSVRVYFKKCPFTVKNLAMFPDTVPMDSQSLVEVRGSCVNNSKEEDPPRMYCSTEGEWLVPIGKCTCNAGYEERGFICQACRPGFYKASDGAAKCAKCPPHSSTQEDGSMNCRCENNYFRAEKDPPSMACARPPSAPRNVISNINETSVILDWSWPLDTGGRKDITFNIICKKCGWNVRQCEPCSPNVRFLPRQLGLTNTTVTVTDLLAHTNYTFEIDAVNGVSELSSPPRQYAAVSITTNQAAPSPVMTIKKDRTSRNSISLSWQEPEHPNGIILDYEVKYYQKQEQETSYTILRARGTNVTISSLKPDTTYVFQIRARTAAGYGTNSRKFEFETSPDSFSISGENSHGSSG
notes: extracellular domain; Used as unpurified conditioned supernatant of stably transfected NIH-3T3 cells; Apparent molecular weight about 150 kD; also called AP-mek4; not shown: secreted human placental alkaline phosphatase, as encoded by vector APtag-1 (Flanagan and Leder 1990)

How the values were obtained:
[1] = molecular target: T1, cell surface ligand expressed endogenously in the rat liver stromal cell line BRL-3A (rat); experiment: Scatchard analysis of AP fusion binding to BRL-3A cells (endogenous ligand)
T1 construct: PI-PLC sensitive (GPI-linked) cell surface ligand; also called endogenous ligand of BRL-3A cells
Experimental: (§1) (FIGS. 3A and 3D) Cells were treated with saturating amounts of mek4-AP or sek-AP, or with AP, each at 500 OD/hr/ml. Columns show the average of two binding determinations, and error bars indicate the difference between the two. (FIGS. 3B–C and 3E–F) show the Scatchard analyses of binding. (FIGS. 3A–3C illsutrate binding to COS cells transfected with Elf-1, and FIGS. 3D–F show endogenous ligand expression by the BRL-3A cell line).
A panel of cell lines was tested with mek4-AP and sek-AP for endogenous expression of a cell surface ligand. Briefly, cells were treated with supernatants containing mek4-AP, sek-AP or unfused AP as a control, each at 1,000 OD/hr/ml. The cells were then washed, lysed and assayed colorimetrically for bound AP activity. […] The highest binding was shown by the rat liver stromal cell line BRL-3A, the mink lung fibroblast line Mv1Lu, and two neural crest cell lines, NC7mycblue and NC7EIablue. The BRL-3A cell line was analyzed further. […] The number of binding sites per BRL-3A cell is approximately 50,000. In situ staining was also used to examine the cell surface binding of mek4-AP and sek-AP to BRL-3A cells, and indicated expression of the ligand over the whole cell surface.

[2] = molecular target: T2, sek-AP soluble receptor fusion protein (mouse Sek receptor extracellular domain fused to secreted human … (mouse; human, UniProt Q03137 20-547); experiment: Scatchard analysis of AP fusion binding to COS cells transfected with Elf-1, colorimetric assay of bound AP activity
T2 construct: extracellular domain; Used as unpurified conditioned supernatant of stably transfected NIH-3T3 cells; Apparent molecular weight about 150 kD; also called Ap-sek; not shown: secreted human placental alkaline phosphatase, as encoded by vector APtag-1 (Flanagan and Leder 1990)
Experimental: as §1

[3] = molecular target: B1; experiment: as above
Experimental: as §1

[4] = molecular target: T2, sek-AP soluble receptor fusion protein …; experiment: Scatchard analysis, COS cells transfected with Elf-1
[5] = molecular target: B1; experiment: as above

T2 sequence (Q03137 other isoform, or with tags, fused parts or gaps): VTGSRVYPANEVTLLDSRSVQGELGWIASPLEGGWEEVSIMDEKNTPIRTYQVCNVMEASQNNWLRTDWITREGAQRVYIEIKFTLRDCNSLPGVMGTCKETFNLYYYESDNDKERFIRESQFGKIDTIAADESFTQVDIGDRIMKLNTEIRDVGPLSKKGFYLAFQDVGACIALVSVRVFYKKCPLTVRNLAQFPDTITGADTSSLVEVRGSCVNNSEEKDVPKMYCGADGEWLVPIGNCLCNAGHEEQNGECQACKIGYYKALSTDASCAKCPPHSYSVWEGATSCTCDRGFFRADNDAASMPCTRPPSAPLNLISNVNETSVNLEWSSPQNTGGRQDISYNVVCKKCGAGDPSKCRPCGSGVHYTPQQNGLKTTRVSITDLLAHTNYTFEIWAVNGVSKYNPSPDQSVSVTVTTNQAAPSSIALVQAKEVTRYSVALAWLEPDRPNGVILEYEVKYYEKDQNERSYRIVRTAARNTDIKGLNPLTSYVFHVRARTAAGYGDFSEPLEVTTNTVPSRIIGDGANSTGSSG

## B1
[1]
  Kd: 1.3 nM

B2: Elf-1 (mouse EPH ligand family-1), expressed on the surface of transiently transfected COS cells (ligand)
chain: RNEDPARANADRYAVYWNRSNPRFQVSAVGDGGGYTVEVSINDYLDIYCPHYGAPLPPAERMERYILYMVNGEGHASCDHRQRGFKRWECNRPAAPGGPLKFSEKFQLFTPFSLGFEFRPGHEYYYISATPPNLVDRPCLRLKVYVRPTNETLYEAPEPIFTSN
modifications: C-terminal glycosyl phosphatidylinositol anchor (sensitive to PI-PLC); attachment residue not stated
notes: The full-length cDNA (209 amino acids) was transfected; also called muElf-1; cell surface Elf-1
[2]
  Kd: 18 nM
[3]
  Kd: 1.8 nM
[4]
  Kd: ~10 nM
[5]
  Kd: ~1 nM

From patent US6777536 (Harvard, dated 2004)
